Assay results as given in the DeepSol protein solubility set.

test: soluble on expression in E. coli; label from the status in PepcDB or PDB records

| Sequence | soluble on expression in E. coli |
| --- | --- |
| EVKLVESGGGLVKPGGSLKLSCAASGFTFNNYVMVWLRQTPEKRLEWVASISRGGSTYYPDSVKGRFTISRDNARNILYLQMSSLRSEDTAMYYCVRGTTIVAGDVWGAGTTVTVSSAKTTPPSVYPLAPGSAAQTNSMVTLGCLVKGYFPEPVTVTWNSGSLSSGVHTFPAVLQSDLYTLSSSVTVPSSTWPSETVTCNVAHPASSTKVDKKIVPRDC | soluble |
| MNKTLIAAAVAGIVLLASNAQAQTVPEGYQLQQVLMMSRHNLRAPLANNGSVLEQSTPNKWPEWDVPGGQLTTKGGVLEVYMGHYMREWLAEQGMVKSGECPPPYTVYAYANSLQRTVATAQFFITGAFPGCDIPVHHQEKMGTMDPTFNPVITDDSAAFSEQAVAAMEKELSKLQLTDSYQLLEKIVNYKDSPACKEKQQCSLVDGKNTFSAKYQQEPGVSGPLKVGNSLVDAFTLQYYEGFPMDQVAWGEIKSDQQWKVLSKLKNGYQDSLFTSPEVARNVAKPLVSYIDKALVTDRTSAPKITVLVGHDSNIASLLTALDFKPYQLHDQNERTPIGGKIVFQRWHDSKANRDLMKIEYVYQSAEQLRNADALTLQAPAQRVTLELSGCPIDADGFCPMDKFDSVLNEAVK | soluble |
| MELSSPGVGSGLDVKNLVDAIVTAEITPSQVRHDKQLNSVNTELSALGQLKSYLTNLQTSLAKLSSLSQFYTMKSTISDPNYFSATLGTGATKNTYQIEIQKLAQQHS | not soluble |
| MSLQHMYRCARVQGLDTSEGLLLFGKEHFYVIDGFTMTATREIRDIETLPPNMHEPIIPRGARQGPSQLKRTCSIFAYEDIKEVHKRRYLLQPIAVEVFSGDGRNYLLAFQKGIRNKVYQRFLAVVPSLTDSSESVSGQRPNTSVEQGSGLLSTLVGEKSVTQRWERGEISNFQYLMHLNTLAGRSYNDLMQYPVFPWILSDYDSEEVDLTNPKTFRNLAKPMGAQTDERLAQYKKRYKDWEDPNGETPAYHYGTHYSSAMIVASYLVRMEPFTQIFLRLQGGHFDLADRMFHSVREAWYSASKHNMADVKELIPEFFYLPEFLFNSNNFDLGCKQNGTKLGDVILPPWAKGDPREFIRVHREALECDYVSAHLHEWIDLIFGYKQQGPAAVEAVNVFHHLFYEGQVDIYNINDPLKETATIGFINNFGQIPKQLFKKPHPPKRVRSRLNGDNIGISVPPGATSDKIFFHHLDNLRPSLTPVKELKEPVGQIVCTDKGILAVEQNKVLIPPAWNKTFAWGYADLSCRLGTYESDKAVTVYECLSEWGQILCAVCPNPKLVITGGTSTVVCVWEMGTSKEKAKPLTLKQALLGHTDTVTCATASLAYHIIVSGSRDRTCIIWDLNKLSFLTQLRGHRAPVSALCINELTGDIVSCAGTYIHVWSINGNPIVSVNTFTGRSQQIVCCCMSEMNEWDTQNVIVTGHSDGVVRFWRMEFLQVPETPAPEPVEDLEMQEGCPEAQIGQQAQDDDSSDSETEEPSVSQDPKDTSSQPSSTSHRPRAASCRATATWCTDSGSDDSRRWSDQLSLDEKDGFIFVNYSEGQTRAHLQGPLAHPHPNPIEARSYSRLKPGYRWERQLVFRSKLTMHTAFDRKDNTHPAEVTALGVSKDHSRILVGDSRGRVFSWSVSDQEGHHHHHH | not soluble |
| MNSLLRLSHLAGPAHYRALHSSSSIWSKVAISKFEPKSYLPYEKLSQTVKIVKDRLKRPLTLSEKILYGHLDQPKTQDIERGVSYLRLRPDRVAMQDATAQMAMLQFISSGLPKTAVPSTIHCDHLIEAQKGGAQDLARAKDLNKEVFNFLATAGSKYGVGFWKPGSGIIHQIILENYAFPGLLLIGTDSHTPNGGGLGGLCIGVGGADAVDVMADIPWELKCPKVIGIKLTGKLNGWTSAKDVILKVADILTVKGGTGAIVEYFGPGVDSISATGMGTICNMGAEIGATTSVFPYNESMYKYLEATGRKEIAEEARKYKDLLTADDGANYDQIIEINLDTLTPHVNGPFTPDLASSIDKLGENAKKNGWPLDVKVSLIGSCTNSSYEDMTRAASIAKQALDKGLKAKTIFTITPGSEQVRATIERDGLSKIFADFGGMVLANACGPCIGQWDRQDVKKGEKNTIVTSYNRNFTGRNDANPATHGFVTSPDITTAMAISGRLDFNPLTDELTAADGSKFKLQAPTGLDLPPKGYDPGEDTFQAPSGSGQVDVSPSSDRLQLLSPFDKWDGKDLEDMKILIKVTGKCTTDHISAAGPWLKYRGHLDNISNNLFLTAINADNGEMNKVKNQVTGEYGAVPATARKYKADGVRWVAIGDENYGEGSSREHAALEPRHLGGRAIIVKSFARIHETNLKKQGMLPLTFANPADYDKIDPSDNVSIVGLSSFAPGKPLTAIFKKTNGSKVEVTLNHTFNEQQIEWFKAGSALNRMKEVFAKSK | soluble |
| SARKKIREYDSKRLLKEHLKRLANIDLQIRSAQVTESTDFTELTNQESWLSSTKLVVKPDMLFGKRGKSGLVALKLDLAEVADFVKARLGTEVEMEGCKAPITTFIVEPFVPHDQEYYLSIVSDRLGCTISFSECGGIEIEENWDKVKTIFLPAEKSMTLEVCAPLIATLPLEVRAKIGNFIMGAFAVFQDLDFSFMEMNPFTLVDGEPFPLDMRGELDDTAAFKNFNKWGDIEFPLPFGRVLSSTENFIHGLDEKTSASLKFTVLNPKGRIWTMVAGGGASVIYADTVGDLGYASELGNYAEYSGAPNEEEVLQYARVVIDCATTDPDGRKRALLIGGGIANFTDVAATFNGIIRALREKETRLKASRMHIYVRRGGPNYQTGLARMRALGEELGVPLEVYGPEATMTGICKRAIDCIMLPDA | not soluble |
| SNQLQQLQNPGESPPVHPFVAPLSYLLGTWRGQGEGEYPTIPSFRYGEEIRFSHSGKPVIAYTQKTWKLESGAPMHAESGYFRPRPDGSIEVVIAQSTGLVEVQKGTYNVDEQSIKLKSDLVGNASKVKEISREFELVDGKLSYVVRMSTTTNPLQPHLKAILDKL | soluble |
| MGSSHHHHHHGGTGENLYFQGGSGMSNSTEQALLQIAQQIERAVDDEIDRIDQMDDDEILAIRQKRLKQLKEIQARRDEWLRKGHGQYLEIAEPKEFFDNVQSSERIVVHFMRRSTPRCEIIERHLRTIAHEHFETRFCYVDVERIPSLPERFNVMMLPTLMLVEKGHTFHSIIGFDEFGGTDDFTTDTVTQVLAHYGMVNEKGMFAADQNDE | soluble |
| MHIKYDQAMDDETKVEAILYATRNPLSVRSISLILGIEAGAISRIIKKLRLEYKKRNTSLEIAKIGNKYRIQLKKEYYDFAYRVMEPELSKYETGFLATVALNEGASLSFFRKRYGSRTDDMISKLKTMSLIRTSKKGNGTAIYLGENFEKVFGITKKELLERATEYDRQN | soluble |
| GSHMEEPSDLEELEQFAKTFKQRRIKLGFTQGDVGLAMGKLYGNDFSQTTISRFEALNLSFKNMAKLKPLLEKWLNDAENLSSDSSLSSPSALNSPGIEGLSERRKKRTSIETNIRVALEKSFLENQKPTSEEITMIADQLNMEKEVIRVWFCNRRQKEKRINPPSS | soluble |
| MSLPRITALRTIRLPERPKLIWVEVETEDGLTGLGETFRGAQAVEAVLHEQTAPAIIGRAAENITSISSELLNPYVGFGSSSAEVRAASAVDIALWDLAGQRAGVPLHVALGGAARDRVPVYATCAGYDFNTSLGGRRSIGSAELSTGPYDDQVAFMRDAGVLAESLVAEGYAAMKIWPFDDFASITPHHISLTDLKDGLEPFRKIRAAVGQRIEIMCELHSLWGTHAAARICNALADYGVLWVEDPIAKMDNIPAVADLRRQTRAPICGGENLAGTRRFHEMLCADAIDFVMLDLTWCGGLSEGRKIAALAETHARPLAPHDCTGPVALMAGLHLALHAPTAIFQEVVRASLATWYADLVDHLPVIQEGIALAPTRPGLGTALLPHVRKIAGAVVRESGKPREGHHHHHH | soluble |
| SLYAISISERTLEKVNAIIESEIKPNAYLASGDLLVHTSRLFMDTPYQANTLVHHSDLPYALVVNFDGMDCFTYLDYVVALSQASDTPSFFSSLMNIRYKKSHIHFYDRKHFFSDWYALSPQIAIDITEKMSPDAITIPKQLNQKVEGGEYIQGLGVIPRMITYIPSDKITQSVLDNLQNGDLVGVYSPKIGLDVTHTGIIVKENNQILYRNASSLSKYNKVVDLPFMDYIRSKPGIVVLRVE | soluble |
| MGSDKIHHHHHHMALIEGFRVRNYRALRDITLGRLSAEQQGDPLTPFTVVIGKNGVGKSTLFDAFGFVADCLSKDVESACDDKQRGGFERMRSLGTEESIRFDIYYREAKGERPITYELAINLDSSGRPFVESEVLKQRRKGQKHGRPYPFLRLHHGVGKVWAGEEAVETSSGEEDRAQEDVELTDLRQLGIATLGTLKEHPRIKRFRDFLKGWHLSYFHPDSARSIPSAGAQRHLDVHGENIGNVVQYMEREHKERFKTILDRIAAKIPGVHSIRTTVTQDKRVLLQFNDGAFNDPFYAGQMSDGTLKIFAYLLLMEDPEPPPFICIEEPENGLYHRLLDSLASELRSHATGKKNAPQIFVTTHQPYFVDALSTKEVWILEKGKNGFSTICRASDIDLVRNLVEEGLPLGGLWYGDYLDTK | not soluble |
| MGSDKIHHHHHHMLPRQPRSRTSADCSGFPARYGGWLALLLSRLSRSAGKEPGCERGARPRTAMRGSHGSISCIATGCLLSSSAMIWTISDLHLSFARPKPMDIFGPGWKDHPERIAQAWRERVAATDWVLIAGDISWAMKLPDALLDLQWIDALPGTKVLIRGNHDYWCPRRVNSIRRHLPPSLRLIGADALDIGEAVVCGTRGWITPETPGFTETDLPIYQRELGLLERALAAGQALAVNKPLIVMIHFPPFVNRQPTEFSRRIAASGAAACIYGHLHRRYDWDNAVQGRVDGVYYQLTACDYLGFGPVAVRGLNGWSGG | not soluble |
| MLQVTGIPDACDNLAPIPMECDAPFLSIKGELPRELNGTLYRNGANPQFVSPNAHWFFGDGMLHAFHLENGRASYRNRWVRTPKWLAEHEAGRPLYGEFNLKLPDAPRSVPDDGNVANTNIVFHAGRLLALEEAHLPMQIERDTLETRCYCDYGGALKGPFTAHPKIDPVTGEMLFFGYNASGPLTRTMSFGAIDASGNVTRLEHFKAPFAAMVHDFIVTEHHVLFPILPLTGSIWRAMRGRPPYAWDPRKGSYVGVMKRSGSTRDVRWFRGEACFVFHVMNAWEDGTRIVADVMQSEEAPLFTHPDGRRTDPEKGRARLCRWSFDLAGNTNAFKRSYLDEISGEFPRIDERRAGLRSGHGWYACASPETPMLGMLTGLVHVDGNGHRRTRYLLPTGDTIGEPVFVPRAADANEAEGWLLAVVWRGCENRSDLAVFNATDIAAGPIALVQLGHRIPDGFHGNWVPAGAAALEHHHHHH | not soluble |
| MRLRLLSLPFILSLCAPLLPLNTLAAERIVTIGGDVTEIAYALGAGDEIVARDSTSQQPQAAQKLPDVGYMRTLNAEGILAMKPTMLLVSELAQPSLVLTQIASSGVNVVTVPGQTTPESVAMKINAVATALHQTEKGQKLIEDYQQRLAAVNKTPLPVKVLFVMSHGGLTPMAAGQNTAADAMIRAAGGSNAMQGFSRYRPLSQEGVIASAPDLLLITTDGVKALGSSENIWKLPGMALTPAGKHKRLLVVDDMALLGFGLETPQVLAQLREKMEQMQ | not soluble |
| SYSYVYIYMPTWREDKRNILEIIDFDRLNQLCIKNNNLFLFRLHPNTEINLDMLVSYSNLRIIDSSCDIYPILPFTDVLITDYSSIYYDYMLIPNKQILLFPFDEEEYCTFNRDLAFDYKIYTPGIRIYSFEALLEIVESKKNLNIKEIKVIKKLFWKGRNESIIDRIIN | not soluble |
| MSQKQEEENPAEETGEEKQDTQEKEGILPERAEEAKLKAKYPSLGQKPGGSDFLMKRLQKGQKYFDSGDYNMAKAKMKNKQLPSAGPDKNLVTGDHIPTPQDLPQRKSSLVTSKLAGGQVE | soluble |
